Results: patent publication US6942981
Ends that are not written are not given here. * marks the point of attachment. Biotin = O=C1N[C@H]2[C@H](CS[C@H]2CCCCC(=O)*)N1

T1: GST-MPP1 PDZ domain fusion protein (Homo sapiens (Human), UniProt Q00013 67-152)
T1 construct: also called 55 Kd erythrocyte membrane protein; not shown: glutathione S-transferase (GST) encoded by pGEX-3X
T1 sequence: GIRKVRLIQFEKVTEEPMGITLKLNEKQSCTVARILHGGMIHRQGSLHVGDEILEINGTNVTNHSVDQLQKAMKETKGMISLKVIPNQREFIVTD

T2: GST-DVL1 PDZ domain fusion protein (human)
T2 construct: also called human dishevelled segment polarity protein homolog; not shown: glutathione S-transferase (GST) encoded by pGEX-3X
T2 chain: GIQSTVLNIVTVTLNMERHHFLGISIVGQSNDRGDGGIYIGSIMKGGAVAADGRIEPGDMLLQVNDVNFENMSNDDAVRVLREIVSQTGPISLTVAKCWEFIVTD

T3: GST-TAX40 PDZ domain fusion protein (human, UniProt Q6B4M5 150-251 (rat entry))
T3 construct: not shown: glutathione S-transferase (GST) encoded by pGEX-3X
T3 sequence: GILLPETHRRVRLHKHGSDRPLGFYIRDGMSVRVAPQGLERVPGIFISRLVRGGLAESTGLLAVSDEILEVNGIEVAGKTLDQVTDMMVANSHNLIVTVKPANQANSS

T4: GST-LIM (Human LIM protein) PDZ domain fusion protein (human, UniProt Q96HC4 2-85)
T4 construct: not shown: glutathione S-transferase (GST) encoded by pGEX-3X
T4 sequence: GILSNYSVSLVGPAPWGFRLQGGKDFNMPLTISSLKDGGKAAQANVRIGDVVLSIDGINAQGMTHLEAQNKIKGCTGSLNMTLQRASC

T5: GST-TAX2 PDZ domain fusion protein (human, UniProt O14908 129-216)
T5 construct: not shown: glutathione S-transferase (GST) encoded by pGEX-3X
T5 chain: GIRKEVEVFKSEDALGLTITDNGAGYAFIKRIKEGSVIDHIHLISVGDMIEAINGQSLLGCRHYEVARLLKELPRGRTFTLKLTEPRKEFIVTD

T6: GST-TAX43 PDZ domain fusion protein (human, UniProt Q13884 109-180)
T6 construct: not shown: glutathione S-transferase (GST) encoded by pGEX-3X
T6 sequence: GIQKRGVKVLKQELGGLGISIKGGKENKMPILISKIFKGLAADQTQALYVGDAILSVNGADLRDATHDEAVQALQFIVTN

T7: GST-prIL16 PDZ domains 1-2 fusion protein (Homo sapiens (Human), UniProt Q14005 1110-1325)
T7 construct: also called putative interleukin 16 precursor; not shown: glutathione S-transferase (GST) encoded by pGEX-3X
T7 sequence: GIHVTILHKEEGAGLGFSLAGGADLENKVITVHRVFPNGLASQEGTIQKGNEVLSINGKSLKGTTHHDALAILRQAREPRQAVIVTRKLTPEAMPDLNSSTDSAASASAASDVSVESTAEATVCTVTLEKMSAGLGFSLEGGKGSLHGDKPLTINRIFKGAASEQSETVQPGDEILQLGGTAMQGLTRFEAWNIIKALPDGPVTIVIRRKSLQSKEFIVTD

T8: GST-NeDLG PDZ domains 1-2 fusion protein (Mus musculus (Mouse), UniProt P70175 147-332)
T8 construct: also called NeDLG1; not shown: glutathione S-transferase (GST) encoded by pGEX-3X
T8 chain: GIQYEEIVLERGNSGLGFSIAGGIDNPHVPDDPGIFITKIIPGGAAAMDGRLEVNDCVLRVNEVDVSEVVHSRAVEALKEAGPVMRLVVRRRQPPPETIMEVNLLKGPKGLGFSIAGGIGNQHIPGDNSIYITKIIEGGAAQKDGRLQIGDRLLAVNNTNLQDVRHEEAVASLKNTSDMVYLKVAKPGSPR


Experiments:
[1] = molecular target: T9, GST-PSD95 PDZ domains 1-3 fusion protein (human, UniProt P31016 58-395 (rat entry)); test: A assay
T9 construct: not shown: glutathione S-transferase (GST) encoded by pGEX-3X

[2] = molecular target: T1, GST-MPP1 PDZ domain fusion protein; test: A/G assays
[3] = molecular target: T2, GST-DVL1 PDZ domain fusion protein; test: A/G assays
[4] = molecular target: T3, GST-TAX40 PDZ domain fusion protein; test: A/G assays
[5] = molecular target: T4, GST-LIM (Human LIM protein) PDZ domain …; test: A/G assays
[6] = molecular target: T5, GST-TAX2 PDZ domain fusion protein; test: A/G assays
[7] = molecular target: T6, GST-TAX43 PDZ domain fusion protein; test: A/G assays
[8] = molecular target: T7, GST-prIL16 PDZ domains 1-2 fusion …; test: A/G assays
[9] = molecular target: T8, GST-NeDLG PDZ domains 1-2 fusion protein; test: G assay
[10] = molecular target: T8, GST-NeDLG PDZ domains 1-2 fusion protein; test: A/G assays

T9 sequence (P31016 other isoform, or with tags, fused parts or gaps): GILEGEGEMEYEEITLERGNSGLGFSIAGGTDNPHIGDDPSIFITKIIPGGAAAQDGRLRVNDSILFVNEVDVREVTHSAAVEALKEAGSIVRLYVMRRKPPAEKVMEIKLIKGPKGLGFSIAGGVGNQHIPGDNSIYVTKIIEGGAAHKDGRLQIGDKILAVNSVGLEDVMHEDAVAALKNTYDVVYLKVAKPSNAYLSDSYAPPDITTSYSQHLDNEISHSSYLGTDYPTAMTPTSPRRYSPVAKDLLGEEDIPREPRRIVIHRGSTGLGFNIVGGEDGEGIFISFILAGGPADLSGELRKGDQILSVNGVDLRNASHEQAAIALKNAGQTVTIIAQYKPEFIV

binding result [1] | binding result [2] | binding result [3] | binding result [4] | binding result [5] | binding result [6] | binding result [7] | binding result [8] | binding result [9] | binding result [10] | Binder
binds | no binding | no binding | no binding | no binding | no binding | no binding | no binding | binds |  | Biotin-QATSRNGHSARQHVVADTEL [CD34 C-terminal peptide AA7L]
 | no binding | no binding | no binding | no binding | no binding | no binding | no binding |  | no binding | Biotin-TIYENLAPVTTFGKTIA [CD148 peptide AA55L (ending KTIA)]
